Results on one substance are retold here after US6716624B2, “GSK3 polypeptides” (Chiron Corporation, priority 2000, dated 2004).

Series [1] in a line: Concentration of the protein stock (solubility of the construct). The class given is physicochemical. The following applies: concentrated protein stock. The method, then:
The GSK3 constructs of the invention are capable of crystallization. […] Potential to crystallize is measured using a variety of assays including specific activity, aggregation, microheterogeneity. (See, for example, Table 1). These parameters are indicative of the purity of the preparation and of the solubility of the construct. The specific activity is also a preferred assay for detecting binding of an inhibitor to the correct binding site of the GSK3 construct. Another suitable method is fluorescence polarization. Briefly, a putative inhibitor, with an attached fluorophore, tumbles freely in solution. Thus when the fluorophore is excited by polarized light, the emitted light which is produced after a finite delay now has random polarity and the emitted light is no longer polarized. In the presence of a GSK3 construct with an intact inhibitor binding site, the tumbling rate is slowed sufficiently to ensure that, even though the light emission is delayed with respect to the excitation, the fluorophore has only moved very slightly. Thus, the excited light maintains polarization. A measurement of fluorescence polarization therefore indicates whether or not the GSK3 construct is suitable for identifying and optimizing an inhibitor. […] GSK3 constructs may not retain kinase activity, but their inhibitor binding can still be assessed using fluorescence polarization assays. […]

For series [2], the system named is prephosphorylated SGSG-linked CREB peptide. In words: Kinase specific activity of truncated GSK3β polypeptides (P81 filter assay). Type of series: biochemical. The following applies: 5.9 μM CREB peptide, 25 μM ATP, 20 min at room temperature. The protocol:
A reaction mixture was prepared containing 5.9 μM prephosphorylated SGSG-linked CREB peptide (Wang et al., Anal. Biochem., 220:397-402 (1994))μ in reaction buffer (5 mM Tris, pH 7.5, 5 mM DTT; 1 mM MgCl2, 0.01% BSA) containing the desired amount of truncated GSK3 polypeptide. ATP was added (specific activity 5.3 Ci/mmol) to 25 μM final concentration and the mixture was incubated for 20 min. at room temperature. The reaction was stopped by transferring 30 μl onto a P81 filter disc (Whatman). The disc was washed four times in 150 ml of 75 mM H3PO4 for 5 minute each. The filter was air dried and counted under 5 ml scintillation fluid. The specific activity was counted by determining the ratio of counts (in cpm) by the mass of GSK3 in the reaction (in μg).

Series [3] can be described thus: Aggregation of the purified construct on storage. The class given is physicochemical. The method, then:
The GSK3 constructs of the invention are capable of crystallization. […] Potential to crystallize is measured using a variety of assays including specific activity, aggregation, microheterogeneity. (See, for example, Table 1). These parameters are indicative of the purity of the preparation and of the solubility of the construct. The specific activity is also a preferred assay for detecting binding of an inhibitor to the correct binding site of the GSK3 construct. Another suitable method is fluorescence polarization. Briefly, a putative inhibitor, with an attached fluorophore, tumbles freely in solution. Thus when the fluorophore is excited by polarized light, the emitted light which is produced after a finite delay now has random polarity and the emitted light is no longer polarized. […] A measurement of fluorescence polarization therefore indicates whether or not the GSK3 construct is suitable for identifying and optimizing an inhibitor. […] GSK3 constructs may not retain kinase activity, but their inhibitor binding can still be assessed using fluorescence polarization assays.
A truncated GSK3 polypeptide of the invention can be selected on the basis of one or more parameters. […] The potential of a polypeptide to form crystals can be evaluated on the basis of specific activity, purity, homogeneity, mass spectrometry, aggregation, and dynamic light scattering. […]

In turn, “Construct 557: Truncated human GSK3β, M1 to I384, with N-terminal Glu-tag and Gly linker (SEQ ID NO:2)” registered a Concentration in series [1] of 12.7 mg/mL. Besides, the “Mean Specific Activity” value in series [2] (mean of N assays) was 4.3 × 10^7 cpm/μg. For the same substance, in series [2] (stated in the text), the specific activity is 4.3×10^7 cpm/μg. Besides, the “Aggregation at 4 Degrees” value in series [3] (4 degrees, > 2 weeks) is on record as “none @ > 2”. The “Aggregation at RT” value in series [3] (room temperature, time at which aggregation occurs) is on record as “overnight”.
